Assays:
Test in all cases: cell-based or functional assay
[1] = biological target: HIV-1 Env of pseudovirus BJOX009000.02.4 (HIV-1)
[2] = biological target: HIV-1 Env of pseudovirus 6545.v4.c1 (HIV-1)
[3] = biological target: HIV-1 Env of pseudovirus 3301.v1.c24 (HIV-1)
[4] = biological target: HIV-1 Env of pseudovirus C3347.c11 (HIV-1)
[5] = biological target: HIV-1 Env of pseudovirus 3016.v5.c45 (HIV-1)
[6] = biological target: HIV-1 Env of pseudovirus C1080.c03 (HIV-1)
[7] = biological target: HIV-1 Env of pseudovirus 211-9 (HIV-1)
[8] = biological target: HIV-1 Env of pseudovirus P1981_C5_3 (HIV-1)
[9] = biological target: HIV-1 Env of pseudovirus X1632_S2_B10 (HIV-1)
[10] = biological target: HIV-1 Env of pseudovirus BJOX015000.11.5 (HIV-1)
[11] = biological target: HIV-1 Env of pseudovirus C4118.c09 (HIV-1)
[12] = biological target: HIV-1 Env of pseudovirus BJOX025000.01.1 (HIV-1)
[13] = biological target: HIV-1 Env of pseudovirus 928-28 (HIV-1)
[14] = biological target: HIV-1 Env of pseudovirus 620345.c01 (HIV-1)
[15] = biological target: HIV-1 Env of pseudovirus R2184.c04 (HIV-1)
[16] = biological target: HIV-1 Env of pseudovirus X1193_c1 (HIV-1)
[17] = biological target: HIV-1 Env of pseudovirus T257-31 (HIV-1)
[18] = biological target: HIV-1 Env of pseudovirus R1166.c01 (HIV-1)
[19] = biological target: HIV-1 Env of pseudovirus 231966.c02 (HIV-1)
[20] = biological target: HIV-1 Env of pseudovirus T251-18 (HIV-1)
[21] = biological target: HIV-1 Env of pseudovirus 89-F1_2_25 (HIV-1)
[22] = biological target: HIV-1 Env of pseudovirus 191955_A11 (HIV-1)
[23] = biological target: HIV-1 Env of pseudovirus 6952.v1.c20 (HIV-1)
[24] = biological target: HIV-1 Env of pseudovirus 231965.c01 (HIV-1)
[25] = biological target: HIV-1 Env of pseudovirus 3817.v2.c59 (HIV-1)
[26] = biological target: HIV-1 Env of pseudovirus 6480.v4.c25 (HIV-1)
[27] = biological target: HIV-1 Env of pseudovirus X2131_C1_B5 (HIV-1)
[28] = biological target: HIV-1 Env of pseudovirus 235-47 (HIV-1)
[29] = biological target: HIV-1 Env of pseudovirus 191084 B7-19 (HIV-1)
[30] = biological target: HIV-1 Env of pseudovirus 9004SS_A3_4 (HIV-1)
[31] = biological target: HIV-1 Env of pseudovirus 3103.v3.c10 (HIV-1)
[32] = biological target: HIV-1 Env of pseudovirus 6540.v4.c1 (HIV-1)
[33] = biological target: HIV-1 Env of pseudovirus T255-34 (HIV-1)
[34] = biological target: HIV-1 Env of pseudovirus 6041.v3.c23 (HIV-1)
[35] = biological target: HIV-1 Env of pseudovirus 6811.v7.c18 (HIV-1)
[36] = biological target: HIV-1 Env of pseudovirus BJOX028000.10.3 (HIV-1)

N49P19 (antibody)
neutralization IC50 [1]: 3.66 µg/mL | neutralization IC80 [1]: 25.6 µg/mL | neutralization MPI [1]: 87 | neutralization IC50 [2]: > 50 µg/mL | neutralization IC80 [2]: > 50 µg/mL | neutralization MPI [2]: 2 | neutralization IC50 [3]: 0.302 µg/mL | neutralization IC80 [3]: 1.42 µg/mL | neutralization MPI [3]: 98 | neutralization IC50 [4]: 3.94 µg/mL | neutralization IC80 [4]: 25.7 µg/mL | neutralization MPI [4]: 87 | neutralization IC50 [5]: > 50 µg/mL | neutralization IC80 [5]: > 50 µg/mL | neutralization MPI [5]: 9 | neutralization IC50 [6]: 0.682 µg/mL | neutralization IC80 [6]: 3.05 µg/mL | neutralization MPI [6]: 100 | neutralization IC50 [7]: 3.23 µg/mL | neutralization IC80 [7]: 19 µg/mL | neutralization MPI [7]: 93 | neutralization IC50 [8]: 20.2 µg/mL | neutralization IC80 [8]: > 50 µg/mL | neutralization MPI [8]: 68 | neutralization IC50 [9]: > 50 µg/mL | neutralization IC80 [9]: > 50 µg/mL | neutralization MPI [9]: 14 | neutralization IC50 [10]: 0.756 µg/mL | neutralization IC80 [10]: 3.17 µg/mL | neutralization MPI [10]: 99 | neutralization IC50 [11]: 0.386 µg/mL | neutralization IC80 [11]: 1.36 µg/mL | neutralization MPI [11]: 100 | neutralization IC50 [12]: > 50 µg/mL | neutralization IC80 [12]: > 50 µg/mL | neutralization MPI [12]: 24 | neutralization IC50 [13]: 2.73 µg/mL | neutralization IC80 [13]: 9.63 µg/mL | neutralization MPI [13]: 97 | neutralization IC50 [14]: > 50 µg/mL | neutralization IC80 [14]: > 50 µg/mL | neutralization MPI [14]: 0 | neutralization IC50 [15]: 0.132 µg/mL | neutralization IC80 [15]: 0.445 µg/mL | neutralization MPI [15]: 100 | neutralization IC50 [16]: 0.54 µg/mL | neutralization IC80 [16]: 3.15 µg/mL | neutralization MPI [16]: 99 | neutralization IC50 [17]: 0.661 µg/mL | neutralization IC80 [17]: 3 µg/mL | neutralization MPI [17]: 100 | neutralization IC50 [18]: 0.629 µg/mL | neutralization IC80 [18]: 2.69 µg/mL | neutralization MPI [18]: 100 | neutralization IC50 [19]: 0.653 µg/mL | neutralization IC80 [19]: 4.55 µg/mL | neutralization MPI [19]: 100 | neutralization IC50 [20]: 0.938 µg/mL | neutralization IC80 [20]: 4.2 µg/mL | neutralization MPI [20]: 100 | neutralization IC50 [21]: > 50 µg/mL | neutralization IC80 [21]: > 50 µg/mL | neutralization MPI [21]: 7 | neutralization IC50 [22]: > 50 µg/mL | neutralization IC80 [22]: > 50 µg/mL | neutralization MPI [22]: 16 | neutralization IC50 [23]: > 50 µg/mL | neutralization IC80 [23]: > 50 µg/mL | neutralization MPI [23]: 0 | neutralization IC50 [24]: > 50 µg/mL | neutralization IC80 [24]: > 50 µg/mL | neutralization MPI [24]: 22 | neutralization IC50 [25]: > 50 µg/mL | neutralization IC80 [25]: > 50 µg/mL | neutralization MPI [25]: 26 | neutralization IC50 [26]: 3.04 µg/mL | neutralization IC80 [26]: 28.2 µg/mL | neutralization MPI [26]: 87 | neutralization IC50 [27]: 2.52 µg/mL | neutralization IC80 [27]: 14.4 µg/mL | neutralization MPI [27]: 91 | neutralization IC50 [28]: 0.44 µg/mL | neutralization IC80 [28]: 3.23 µg/mL | neutralization MPI [28]: 89 | neutralization IC50 [29]: 0.357 µg/mL | neutralization IC80 [29]: 1.34 µg/mL | neutralization MPI [29]: 100 | neutralization IC50 [30]: 0.661 µg/mL | neutralization IC80 [30]: 3.09 µg/mL | neutralization MPI [30]: 100 | neutralization IC50 [31]: > 50 µg/mL | neutralization IC80 [31]: > 50 µg/mL | neutralization MPI [31]: 0 | neutralization IC50 [32]: 11.2 µg/mL | neutralization IC80 [32]: > 50 µg/mL | neutralization MPI [32]: 63 | neutralization IC50 [33]: 0.948 µg/mL | neutralization IC80 [33]: 6.22 µg/mL | neutralization MPI [33]: 97 | neutralization IC50 [34]: > 50 µg/mL | neutralization IC80 [34]: > 50 µg/mL | neutralization MPI [34]: 32 | neutralization IC50 [35]: 1.3 µg/mL | neutralization IC80 [35]: 4.71 µg/mL | neutralization MPI [35]: 97 | neutralization IC50 [36]: 7 µg/mL | neutralization IC80 [36]: > 50 µg/mL | neutralization MPI [36]: 80

PGDM1400 (antibody)
IC50 (Titer in TZM.bl cells) [1]: 0.443 µg/mL | IC80 (Titer in TZM.bl cells) [1]: 1.29 µg/mL | IC50 (Titer in TZM.bl cells) [2]: 0.003 µg/mL | IC80 (Titer in TZM.bl cells) [2]: 0.039 µg/mL | IC50 (Titer in TZM.bl cells) [3]: 0.048 µg/mL | IC80 (Titer in TZM.bl cells) [3]: 0.245 µg/mL | IC50 (Titer in TZM.bl cells) [4]: 0.011 µg/mL | IC80 (Titer in TZM.bl cells) [4]: 0.051 µg/mL | IC50 (Titer in TZM.bl cells) [5]: > 50 µg/mL | IC80 (Titer in TZM.bl cells) [5]: > 50 µg/mL | IC50 (Titer in TZM.bl cells) [6]: < 0.001 µg/mL | IC80 (Titer in TZM.bl cells) [6]: < 0.001 µg/mL | IC50 (Titer in TZM.bl cells) [7]: 0.088 µg/mL | IC80 (Titer in TZM.bl cells) [7]: 0.393 µg/mL | IC50 (Titer in TZM.bl cells) [8]: 0.104 µg/mL | IC80 (Titer in TZM.bl cells) [8]: 4.6 µg/mL | IC50 (Titer in TZM.bl cells) [9]: 0.055 µg/mL | IC80 (Titer in TZM.bl cells) [9]: 1.45 µg/mL | IC50 (Titer in TZM.bl cells) [10]: 0.52 µg/mL | IC80 (Titer in TZM.bl cells) [10]: 10.6 µg/mL | IC50 (Titer in TZM.bl cells) [11]: 0.002 µg/mL | IC80 (Titer in TZM.bl cells) [11]: 0.005 µg/mL | IC50 (Titer in TZM.bl cells) [12]: 0.087 µg/mL | IC80 (Titer in TZM.bl cells) [12]: 0.573 µg/mL | neutralization IC50 [13]: 0.22 µg/mL | neutralization IC80 [13]: 1.25 µg/mL | IC50 (Titer in TZM.bl cells) [14]: 0.009 µg/mL | IC80 (Titer in TZM.bl cells) [14]: 40.3 µg/mL | IC50 (Titer in TZM.bl cells) [15]: 0.003 µg/mL | IC80 (Titer in TZM.bl cells) [15]: 0.012 µg/mL | IC50 (Titer in TZM.bl cells) [16]: 0.219 µg/mL | IC80 (Titer in TZM.bl cells) [16]: 0.781 µg/mL | neutralization IC50 [17]: 0.002 µg/mL | neutralization IC80 [17]: 0.031 µg/mL | IC50 (Titer in TZM.bl cells) [18]: 1.43 µg/mL | IC80 (Titer in TZM.bl cells) [18]: 6.92 µg/mL | IC50 (Titer in TZM.bl cells) [19]: 0.001 µg/mL | IC80 (Titer in TZM.bl cells) [19]: 0.004 µg/mL | IC50 (Titer in TZM.bl cells) [20]: 8.62 µg/mL | IC80 (Titer in TZM.bl cells) [20]: 43.1 µg/mL | IC50 (Titer in TZM.bl cells) [21]: 0.001 µg/mL | IC80 (Titer in TZM.bl cells) [21]: 0.005 µg/mL | neutralization IC50 [22]: 0.001 µg/mL | neutralization IC80 [22]: 0.021 µg/mL | IC50 (Titer in TZM.bl cells) [23]: 0.501 µg/mL | IC80 (Titer in TZM.bl cells) [23]: 11.8 µg/mL | IC50 (Titer in TZM.bl cells) [24]: 0.025 µg/mL | IC80 (Titer in TZM.bl cells) [24]: 1.28 µg/mL | IC50 (Titer in TZM.bl cells) [25]: > 50 µg/mL | IC80 (Titer in TZM.bl cells) [25]: > 50 µg/mL | IC50 (Titer in TZM.bl cells) [26]: > 50 µg/mL | IC80 (Titer in TZM.bl cells) [26]: > 50 µg/mL | IC50 (Titer in TZM.bl cells) [27]: 0.128 µg/mL | IC80 (Titer in TZM.bl cells) [27]: 0.568 µg/mL | IC50 (Titer in TZM.bl cells) [28]: 0.005 µg/mL | IC80 (Titer in TZM.bl cells) [28]: 0.032 µg/mL | neutralization IC50 [29]: < 0.001 µg/mL | neutralization IC80 [29]: 0.007 µg/mL | neutralization IC50 [30]: < 0.001 µg/mL | neutralization IC80 [30]: 0.002 µg/mL | IC50 (Titer in TZM.bl cells) [31]: 0.671 µg/mL | IC80 (Titer in TZM.bl cells) [31]: 2 µg/mL | IC50 (Titer in TZM.bl cells) [32]: 0.004 µg/mL | IC80 (Titer in TZM.bl cells) [32]: 0.028 µg/mL | IC50 (Titer in TZM.bl cells) [33]: 0.654 µg/mL | IC80 (Titer in TZM.bl cells) [33]: > 50 µg/mL | IC50 (Titer in TZM.bl cells) [34]: 0.013 µg/mL | IC80 (Titer in TZM.bl cells) [34]: 0.289 µg/mL | IC50 (Titer in TZM.bl cells) [35]: > 50 µg/mL | IC80 (Titer in TZM.bl cells) [35]: > 50 µg/mL | IC50 (Titer in TZM.bl cells) [36]: 0.072 µg/mL | IC80 (Titer in TZM.bl cells) [36]: 0.963 µg/mL

— patent US20240117018A1
